In US20140120555A1 (PIERRE FABRE MEDICAMENT, published 2014):
Substitutions are numbered along the chain they refer to. Numbers in names are those of the source.

T1: Recombinant mouse FcγRI [CD64], Gln25-Pro297 with C-terminal 6-His tag (mouse, UniProt P26151 25-297)
T1 construct: range 25-297; Soluble form bought from R&D Systems; also called m-FcγRI
T1 sequence: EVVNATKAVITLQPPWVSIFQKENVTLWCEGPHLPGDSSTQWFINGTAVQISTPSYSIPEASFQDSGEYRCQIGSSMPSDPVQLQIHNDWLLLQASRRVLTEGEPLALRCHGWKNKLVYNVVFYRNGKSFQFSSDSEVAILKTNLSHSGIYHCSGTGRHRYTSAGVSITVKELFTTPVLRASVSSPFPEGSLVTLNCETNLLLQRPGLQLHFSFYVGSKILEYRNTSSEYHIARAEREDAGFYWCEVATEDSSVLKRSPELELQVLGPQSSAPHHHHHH

T2: Recombinant mouse FcγRIII [CD16], Ala31-Thr215 with C-terminal 10-His tag (mouse, UniProt P08508 31-215)
T2 construct: Soluble form bought from R&D Systems; also called m-FcγRIII
T2 sequence: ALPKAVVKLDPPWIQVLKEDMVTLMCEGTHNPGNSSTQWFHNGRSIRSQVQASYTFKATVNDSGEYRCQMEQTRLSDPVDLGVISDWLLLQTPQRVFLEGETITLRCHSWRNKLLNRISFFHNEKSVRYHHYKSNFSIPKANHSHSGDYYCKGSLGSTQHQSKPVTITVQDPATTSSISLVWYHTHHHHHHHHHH

B1: chimeric antibody c515H7 (antibody, human IgG1, kappa)
heavy: not shown
light: DIVMSQSPSSLAVSAGEKVTMSCKSSQSLFNSRTRKNYLAWYQQKPGQSPKLLIYWASARDSGVPARFTGSGSETYFTLTISRVQAEDLAVYYCMQSFNLRTFGGGTKLEIKRTVAAPSVFIFPPSDEQLKSGTASVVCLLNNFYPREAKVQWKVDNALQSGNSQESVTEQDSKDSTYSLSSTLTLSKADYEKHKVYACEVTHQGLSSPVTKSFNRGEC
notes: Human IgG1/kappa constant domains; also called c515H7 Mab; chimeric 515H7
B2: humanized antibody Hz515H7 VH1 D76N VL2 (antibody, human IgG1, kappa)
heavy: not shown
light: B1 light with S5T, A15L, K18R, V19A, G105Q, L109V
notes: IgG1/kappa; also called hz515H7VL2; hz515H7-1

Assays:
[1] = target: T3, Recombinant human FcγRIIIA variant V [CD16a], Gln17-Gln208 with C-terminal 6-His tag (human, UniProt P08637 17-208); test: SPR (Biacore X), steady-state analysis, response at end of association versus h-FcγRIIIA concentration
T3 construct: range 17-208; 'variant V' is given without a position, so no substitution is written; also called h-FcγRIIIA
T3 sequence (P08637 other isoform, or with tags, fused parts or gaps mutant limits assumed, form in doubt): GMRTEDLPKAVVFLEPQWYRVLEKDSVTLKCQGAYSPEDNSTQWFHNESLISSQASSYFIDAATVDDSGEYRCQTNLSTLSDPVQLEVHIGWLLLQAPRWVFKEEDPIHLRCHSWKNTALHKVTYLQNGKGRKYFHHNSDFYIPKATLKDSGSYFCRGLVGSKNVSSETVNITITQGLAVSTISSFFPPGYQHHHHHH

[2] = target: T3, Recombinant human FcγRIIIA variant V …; test: SPR (Biacore X), Mab on CM4 chip, h-FcγRIIIA as analyte, heterogeneous ligand model, minor component
[3] = target: T4, Recombinant human FcγRI [CD64], Gln16-Pro288 with C-terminal 6-His tag (human, UniProt P12314 16-288); test: SPR (Biacore X), Mab amine-coupled on CM4 chip, h-FcγRI as analyte, Langmuïr model
T4 construct: range 16-288; Soluble form bought from R&D Systems; also called h-FcγRI
T4 sequence (P12314 other isoform, or with tags, fused parts or gaps limits assumed): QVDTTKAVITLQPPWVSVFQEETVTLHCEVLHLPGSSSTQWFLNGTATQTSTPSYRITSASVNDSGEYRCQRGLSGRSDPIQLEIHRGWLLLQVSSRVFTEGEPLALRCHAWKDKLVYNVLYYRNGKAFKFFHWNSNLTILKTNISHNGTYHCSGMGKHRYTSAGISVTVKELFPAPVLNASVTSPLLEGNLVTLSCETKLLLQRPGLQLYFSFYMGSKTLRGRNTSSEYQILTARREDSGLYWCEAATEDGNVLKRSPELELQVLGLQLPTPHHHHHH

[4] = target: T1, Recombinant mouse FcγRI [CD64], …; test: SPR (Biacore X): m-FcγRI injected over c515H7 Mab immobilized on a CM4 sensorchip; Langmuir model
Description: (§1) 2017 RU of c515H7 Mab were immobilized using the amine coupling kit chemistry on the second flowcell (FC2) of a CM4 sensorchip. The first flowcell (FC1) activated by NHS and EDC mixture and des-activated by ethanolamine served as the reference surface to check and subtract the non specific interaction between the analyte (Fc gamma receptors) and the sensorchip matrix.
(§2) The kinetic experiments were carried out at 25° Celsius at a flow rate of 30 μl/min. The HBS-EP buffer was used either as the running buffer or for the preparation of analyte solutions. The analyte solutions were injected during 90 seconds (association phase) with a 90 seconds delay (dissociation phase). An injection of running buffer as analyte was used as a double reference. All the sensorgrams were corrected by this double reference sensorgram.
(§3) After each injection of the analyte, the sensorchip was regenerated by injection of 20 mM NaOH, 75 mM NaCl solution.

[5] = target: T4, Recombinant human FcγRI [CD64], …; test: SPR (Biacore X): h-FcγRI injected over c515H7 Mab immobilized on a CM4 sensorchip; heterogeneous ligand model, major component (100%)
Description: as §1, §2, §3

[6] = target: T1, Recombinant mouse FcγRI [CD64], …; test: SPR (Biacore X), steady-state analysis, response at end of association versus m-FcγRI concentration
[7] = target: T1, Recombinant mouse FcγRI [CD64], …; test: SPR (Biacore X), Mab on CM4 chip, m-FcγRI as analyte, heterogeneous ligand model, major component; major component (81%), higher value
Description: as §1, §2
According to this model, the c515H7 Mab Fc domain may be regarded as a mixture of two components.

[8] = target: T3, Recombinant human FcγRIIIA variant V …; test: SPR (Biacore X), Mab on CM4 chip, h-FcγRIIIA as analyte, heterogeneous ligand model, major component
[9] = target: T2, Recombinant mouse FcγRIII [CD16], …; test: SPR (Biacore X): m-FcγRIII injected over hz515H7VH1D76NVL2 Mab immobilized on a CM4 sensorchip; heterogeneous ligand model, major component (66%)
[10] = target: T2, Recombinant mouse FcγRIII [CD16], …; test: SPR (Biacore X): m-FcγRIII injected over hz515H7VH1D76NVL2 Mab immobilized on a CM4 sensorchip; Langmuir model
Description: as §1, with “1964” for “2017”, “hz515H7VH1D76NVL2” for “c515H7”
as §2
Using the Langmuïr model the constant of dissociation was around 17 and 18 nM.

[11] = target: T1, Recombinant mouse FcγRI [CD64], …; test: SPR (Biacore X), heterogeneous ligand model, m-FcγRI as analyte
Description: as §1, with “1964” for “2017”, “hz515H7VH1D76NVL2” for “c515H7”
as §2
According to this model, the hz515H7VH1D76NVL2 Mab Fc domain may be regarded as a mixture of two components.

Binder | Kd [1] | Kd [2] | Kd [3] | Kd [4] | koff [4] | kon [4] | Kd [5] | koff [5] | kon [5] | Kd [6] | Kd [7] | Kd [8] | Kd [9] | koff [9] | kon [9] | Kd [10] | koff [10] | kon [10] | fold association rate, major versus minor component [11] | fold dissociation rate, major versus minor component [11]
B1 | 160 nM | 32 to 37 nM | 1.2 nM | 106 nM | 0.0661 s⁻¹ | 622000 M⁻¹ s⁻¹ | 1.22 nM | 0.000599 s⁻¹ | 493000 M⁻¹ s⁻¹ | 107 nM | ~450 nM | 380 to 450 nM | – | – | – | – | – | – | – | –
B2 | 176 nM | 27 to 32 nM | 0.9 nM | – | – | – | – | – | – | 95 nM | – | 300 to 350 nM | 0.2 nM | 3.7e-05 s⁻¹ | 178000 M⁻¹ s⁻¹ | 17.4 nM | 0.00364 s⁻¹ | 209000 M⁻¹ s⁻¹ | 5.7 fold | 4.8 fold
